The assay addresses T1, recombinant human GM-CSF (rhGM-CSF), produced in E. coli (human, UniProt P04141 18-144).
T1 construct: The ELISA of 2.5.2 and the TF-1 proliferation assays say only rhGM-CSF without naming the preparation; they are assigned to this molecule; also called human GM-CSF antigen; recombinant human granulocyte macrophage colony stimulating factor
Put plainly: SPR off-rate ranking, purified periplasmic preparation over immobilized rhGM-CSF; clone listed among the sequenced hits in the 2nd table. How it is done: FIG. 9: Binding analysis (kinetic off rate) of SCA hits derived from the method of the invention, as determined by SPR. Binding kinetics of the SCA hits were measured injecting 10 µL of purified periplasmic preparation ("PPP") protein solution with a flow rate of 5 µL/min at 25° C. onto the sensor chip. The data were monitored in all four flow cells. Background association with the unmodified CM5 chip surface (FC1) was substracted from the binding to the immobilised rhGM-CSF (FC2) allowing analysis of the specific binding signal (FC2-FC1 response difference). The dissociation rate was monitored for 100 sec (FIG. 4). The amplitude of the binding peak (RUmax) directly correlates to the protein concentration in the injected sample. The kinetic association rate constant (ka) is concentration dependent and can—due to varying concentrations of the PPP protein solution—not be used for the qualitative ranking of the purified PPP SCA material. The kinetic dissociation rate constant (kd) is protein concentration independent and characteristic for the binding strength of the respective SCA hit. The SCA hits with the best apparent off rate were identified.

T1 sequence (P04141 18-144 limits assumed): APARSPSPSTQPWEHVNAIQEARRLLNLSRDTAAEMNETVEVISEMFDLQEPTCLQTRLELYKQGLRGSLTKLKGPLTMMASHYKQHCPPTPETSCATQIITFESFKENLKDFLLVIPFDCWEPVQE

B1: half-human SCA B33oN-22 (scFv)
scFv: ELQLVEQSGAALVKPGDSVKMSCKASGYPFTDYIVHWVKQSHGKSLDWIGYINPYSGDTKFNEKFKSKATLTVDKSSSTAYMEFSRLTSEDSAIYYCARSGLIAVYFDYWGQGTTVTVSSGGGGSGGGGSGGGGSELVLTQSPDFQSVTPKEKVTITCRASQSIGSSLHWYQQKPDQSPKLLIKFASQSFSGVPSRFSGSGSGTDFTLTINSLEAEDAATYYCQQSYSTPPTFGQGTKVEIKTGDYKDDDDKHHHHHH
notes: Expressed from pComb3H5BFlag/His
For the molecule B1, the binding result is on record as “binds”.

B2: half-human SCA B32oN-44 (scFv)
scFv: ELQLVEQSGAALVKPGDSVKMSCKASGYPFTDYIVHWVKQSHGKSLDWIGYINPYSGDTKFNEKFKSKATLTVDKSSSTAYMEFSRLTSEDSAIYYCARSGLIAVYFDYWGQGTTVTVSSGGGGSGGGGSGGGGSELVLTQSPDFQSVTPKEKVTITCRASQSIGSSLHWYQQKPDQPPKLLIKFASQSISRVPSRFSGTGSGTDFTLTINSLEAEDAATYYCQQSFSFPYTFGQGTKLEIKTGDYKDDDDKHHHHHH
notes: as for B1
With B2, the binding result is “binds”.

B3: half-human SCA C32oN-21 (scFv)
scFv: ELQLVEQSGAALVKPGDSVKMSCKASGYPFTDYIVHWVKQSHGKSLDWIGYINPYSGDTKFNEKFKSKATLTVDKSSSTAYMEFSRLTSEDSAIYYCARSGLIAVYFDYWGQGTTVTVSSGGGGSGGGGSGGGGSELVLTQSPGFQSVTPKEKVTITCRASQSIGSSLHWYQQKPDQSPKLLIKFASQSISGVPSRFSGTGSGTDFTLTINSLEAEDAATYYCQQSSTLPPTFGQGTKLEIKTGDYKDDDDKHHHHHH
notes: as for B1
For B3, the binding result was “binds”.

B4: half-human SCA B33oN-69 (scFv)
scFv: ELQLVEQSGAALVKPGDSVKMSCKASGYPFTDYIVHWVKQSHGKSLDWIGYINPYSGDTKFNEKFKSKATLTVDKSSSTAYMEFSRLTSEDSAIYYCARSGLIAVYFDYWGQGTTVTVSSGGGGSGGGGSGGGGSELVLTQSPDFQSVTPKEKVTITCRASQSIGTGLHWYQQKPDQSPKLLIKFASQSFSGVPSRFSGSGSGTDFTLTINGLEAEDAATYYCQQSSTLPPTFGQGTKLEIKTGDYKDDDDKHHHHHH
notes: as for B1
For the molecule B4, the binding result is on record as “binds”.

B5: half-human SCA B33oN-66 (scFv)
scFv: ELQLVEQSGAALVKPGDSVKMSCKASGYPFTDYIVHWVKQSHGKSLDWIGYINPYSGDTKFNEKFKSKATLTVDKSSSTAYMEFSRLTSEDSAIYYCARSGLIAVYFDYWGQGTTVTVSSGGGGSGGGGSGGGGSELVLTQSPDFQSVTPKEKVTITCRASQSIGSNLHWYQQKPDQSPKLLIKFASQSFSGVPSRFSGSGSGTDFSLTINSLEAEDAATYYCQQSYSTPPTFGQGTRLEIKTGDYKDDDDKHHHHHH
notes: as for B1
Turning to B5, the binding result is “binds”.

B6: half-human SCA C32oN-34 (scFv)
scFv: ELQLVEQSGAALVKPGDSVKMSCKASGYPFTDYIVHWVKQSHGKSLDWIGYINPYSGDTKFNEKFKSKATLTVDKSSSTAYMEFSRLTSEDSAIYYCARSGLIAVYFDYWGQGTTVTVSSGGGGSGGGGSGGGGSELVLTQSPDFQSVTPKERVTITCRASQTIGNNLHWYQQKPGQSPKLLIKFASQSFSGVPSRFSGSGSGTDFTLTINSLEAEDAATYYCQQSYSTPWTFGQGTKVEIKTGDYKDDDDKHHHHHH
notes: as for B1
As for B6, the binding result is reported as “binds”.

B7: half-human SCA B32oN-49 (scFv)
scFv: ELQLVEQSGAALVKPGDSVKMSCKASGYPFTDYIVHWVKQSHGKSLDWIGYINPYSGDTKFNEKFKSKATLTVDKSSSTAYMEFSRLTSEDSAIYYCARSGLIAVYFDYWGQGTTVTVSSGGGGSGGGGSGGGGSELVLTQSPDFQSVTPKEKVTITCRASQSIGSSLHWYQQKPDQSPKLLIKFASQSLSGVPSRFSGSGSGTDFTLTISSLQPEDFATYYCQQSYTTPPTFGGGTKVEIKTGDYKDDDDKHHHHHH
notes: as for B1
Take B7: the binding result is on record as “binds”.

B8: half-human SCA C32oN-10 (scFv)
scFv: ELQLVEQSGAALVKPGDSVKMSCKASGYPFTDYIVHWVKQSHGKSLDWIGYINPYSGDTKFNEKFKSKATLTVDKSSSTAYMEFSRLTSEDSAIYYCARSGLIAVYFDYWGQGTTVTVSSGGGGSGGGGSGGGGSELVLTQSPDFQSVTPKEKVTITCRASQSIGSSLHWYQQKPDQSPKLLIKFASQSLSGVPSRFSGSGSGTDFTLTINSLEAEDFATYYCQQSYSTPSTFGPGTKVEIKTGDYKDDDDKHHHHHH
notes: as for B1
As for B8, the binding result is recorded as “binds”.

B9: half-human SCA C32oN-46 (scFv)
scFv: ELQLVEQSGAALVKPGDSVKMSCKASGYPFTDYIVHWVKQSHGKSLDWIGYINPYSGDTKFNEKFKSKATLTVDKSSSTAYMEFSRLTSEDSAIYYCARSGLIAVYFDYWGQGTTVTVSSGGGGSGGGGSGGGGSELVLTQSPDFQSVTPKEKVTITCRASQSIGSSLHWYQQKPDQSPKLLIKFASQSLSGVPSRFSGSGSGTDFTLTISSLQPEDFATYYCQQSYSTPPTFGQGTKVEIKTGDYKDDDDKHHHHHH
notes: as for B1
Take B9: the binding result is listed as “binds”.

B10: half-human SCA B33oN-21 (scFv)
scFv: ELQLVEQSGAALVKPGDSVKMSCKASGYPFTDYIVHWVKQSHGKSLDWIGYINPYSGDTKFNEKFKSKATLTVDKSSSTAYMEFSRLTSEDSAIYYCARSGLIAVYFDYWGQGTTVTVSSGGGGSGGGGSGGGGSELVLTQSPDFQSVTPKEKVTITCRASQSIGSSLHWYQQKPDQSPKLLIKFASQSLSGVPSRFSGSGSGTDFTLTINSLEAEDAATYYCQQSYSTPWTFGQGTKLEIKTGDYKDDDDKHHHHHH
notes: as for B1
As for B10, the binding result is given as “binds”.

B11: half-human SCA B33oN-8 (scFv)
scFv: ELQLVEQSGAALVKPGDSVKMSCKASGYPFTDYIVHWVKQSHGKSLDWIGYINPYSGDTKFNEKFKSKATLTVDKSSSTAYMEFSRLTSEDSAIYYCARSGLIAVYFDYWGQGTTVTVSSGGGGSGGGGSGGGGSELVLTQSPGFQSVTPKEKVTITCRASQSIGSSLNWYQQKPDQPPKLLIKFASQSISGVSSRFSGTGSGTDFTLTISSLQPEDVATYYCQQSYSTPPTFGQGTKLEIKTGDYKDDDDKHHHHHH
notes: as for B1
In the case of B11, the binding result was “binds”.

B12: half-human SCA B33oN-115 (scFv)
scFv: ELQLVEQSGAALVKPGDSVKMSCKASGYPFTDYIVHWVKQSHGKSLDWIGYINPYSGDTKFNEKFKSKATLTVDKSSSTAYMEFSRLTSEDSAIYYCARSGLIAVYFDYWGQGTTVTVSSGGGGSGGGGSGGGGSELVLTQSPDFQSVTPKEKVTITCRASQSIGSSLHWYQQKPDQSPKLLIKFASQSLSGVPSRFSGSGSGTDFTLTISSLQPEDFATYYCQQSYSTPSTFGPGTKVEIKTGDYKDDDDKHHHHHH
notes: as for B1
On to B12, for which the binding result is “binds”.

B13: half-human SCA C33oN-49 (scFv)
scFv: ELQLVEQSGAALVKPGDSVKMSCKASGYPFTDYIVHWVKQSHGKSLDWIGYINPYSGDTKFNEKFKSKATLTVDKSSSTAYMEFSRLTSEDSAIYYCARSGLIAVYFDYWGQGTTVTVSSGGGGSGGGGSGGGGSELVLTQSPDFQSVTPKEKVTITCRASQSIGSSLHWYQQKPDQSPKLLIKFASQSFSGVPSRFSGSGSGTDFTLTINSLEAEDAATYYCQQSYSTPWTFGQGTKLEIKTGDYKDDDDKHHHHHH
notes: as for B1
As to B13, the binding result is “binds”.

B14: half-human SCA B32oN-10 (scFv)
scFv: ELQLVEQSGAALVKPGDSVKMSCKASGYPFTDYIVHWVKQSHGKSLDWIGYINPYSGDTKFNEKFKSKATLTVDKSSSTAYMEFSRLTSEDSAIYYCARSGLIAVYFDYWGQGTTVTVSSGGGGSGGGGSGGGGSELQMTQSPSSLSASVGDRVTITCRTSQTISSLLNWYQQKPGKAPKLLIYAASNLQSGVPSRFSGSGSGTDFTLTISGLQPEDFSTYFCQQSYSFPRTFGQGTKVDIKTGDYKDDDDKHHHHHH
notes: as for B1
B14: the binding result is given as “binds”.

The values above are taken from patent US8247194 (Amgen, dated 2012).
